The results in this text go back to paper PMC5714350.

For data set [1], the target named is P27838. In words: dynamic light scattering; CyaY with Fe2+ 6:1 (DFO also 8:1) for 15 min, then chelator (deferiprone, DFO or BIPY) at 3 times the amount of iron. Conditions: other: dynamic light scattering.
Data set [2] concerns the target P27838. In words: dynamic light scattering; CyaY 2 mg/ml (0.16 mM) with ammonium iron (II) sulfate, Fe2+:protein 1:1, 2:1, 4:1, 6:1, 8:1, 10:1; 1 h at 30°C; volume distribution. Conditions: other: dynamic light scattering.

B1: E. coli frataxin CyaY (protein)
chain: MNDSEFHRLADQLWLTIEERLDDWDGDSDIDCEINGGVLTITFENGSKIIINRQEPLHQVWLATKQGGYHFDLKGDEWICDRSGETFWDLLEQAATQQAGETVSFR
In data set [1], B1 displayed a % of particles in the monomer range (hydrodynamic radius 1.6–2.1 nm), with iron (Fe2+ 6:1) and BIPY of 76%; a % of particles in the monomer range (hydrodynamic radius 1.6–2.1 nm), with iron (Fe2+ 6:1) and DFO of 93%; a % of particles with hydrodynamic radius 2.2–2.9 nm (smaller oligomers), with iron (Fe2+ 6:1) and deferiprone of 95%; a % of particles with hydrodynamic radius 6.0–8.5 nm (oligomers), with iron (Fe2+ 6:1) and BIPY of 24%. In addition, in data set [1], the % of particles with hydrodynamic radius 6.0–8.5 nm (oligomers), with iron (Fe2+ 6:1) and DFO turned out to be 7%; the % of particles with hydrodynamic radius 8.5–14 nm (oligomers), with iron (Fe2+ 6:1) and deferiprone is 5%; the “% of particles with hydrodynamic radius 8.5–14 nm (oligomers), with iron (Fe2+ 8:1) and DFO” value is “(8.5–14 nm, 100%, Fig 3B)”. Also, in data set [2], the % of particles with hydrodynamic radius 3.0–5.9 nm (oligomers), with iron (Fe2+ 6:1) was 77%; the “% of particles with hydrodynamic radius 6–8.5 nm (oligomers), with iron (Fe2+ 8:1)” value was “about 74% of the particles having a hydrodynamic radius in the range of 6–8.5 nm”; the % of particles with hydrodynamic radius 8.5–14 nm (oligomers), with iron (Fe2+ 6:1) stood at 23%; the “% of particles with hydrodynamic radius 8.5–14 nm (oligomers), with iron (Fe2+ 8:1)” value was “(25% and 1%, respectively, not shown)”. Moreover, in data set [2], the “% of particles with hydrodynamic radius 8.5–14 nm (oligomers), with iron (Fe2+ 10:1)” value is given as 8.5–14 nm (83%); the “% of particles with hydrodynamic radius 26–40 nm (oligomers), with iron (Fe2+ 10:1)” value is 26–40 nm (17%); the “% of particles with hydrodynamic radius >100 nm, with iron (Fe2+ 8:1)” value was “(25% and 1%, respectively, not shown)”.
